Laboratory results taken from patent publication US20020037514A1, “Identification of nuclear receptor-dependent coregulator recruitment” (priority 2000, published 2002).

Legend:
RARγ-V5/RXRα heterodimer [1] = biological target: T1, RARγ-V5/RXRα heterodimer (Homo sapiens, UniProt P13631); assay: DNA modified immunoprecipitation, co-repressor N-CoR recruitment (Example 6); format: biochemical; settings: ligand 1 μM
Procedure: Immunoprecipitation with mouse anti-V5 antibody and Western analysis were conducted as set forth above.

[2] = biological target: RARα/RXR heterodimer bound to a DR-5 retinoic acid receptor response element (Example 9) (human) (UniProt P10276); assay: DNA dependent co-IP with DR-5 RARE, Western anti-ACTR; 1 uM ligand AGN196412
[3] = biological target: RARβ-V5/RXRα heterodimer (human) (UniProt P10826); assay: anti-V5 co-IP from CV-1 lysate, Western anti-SRC-1; 1 uM AGN 194204 with DR-5 RARE against 1 uM TTNPB
[4] = biological target: RARα/RXR heterodimer bound to a DR-5 retinoic acid receptor response element (Example 9) (human) (UniProt P10276); assay: DNA dependent co-IP with DR-5 RARE, Western anti-SRC-1; 1 uM ligand AGN194365
[5] = biological target: RARα/RXR heterodimer bound to a DR-5 retinoic acid receptor response element (Example 9) (human) (UniProt P10276); assay: DNA dependent co-IP with DR-5 RARE, Western anti-SRC-1; 1 uM ligand AGN194794, 196382 or 196412 (which ligand gives which end is not told)
[6] = biological target: T2, RARα-V5/RXRγ/DR-5 ternary complex (Homo sapiens, UniProt P10276); assay: LXD peptide competition of ATRA-induced co-activator recruitment (Example 7, FIG. 8A); format: biochemical; settings: DR-5 RARE; for effect of peptide on ATRA-induced recruitment of ACTR: ACTR peptides at 20 μl (so in the source); for effect of peptide on ATRA-induced recruitment of SRC-1: SRC-1 peptides at 40 μl (so in the source)
T2 construct: the nuclear receptor subunits used in the invention are full length nuclear receptor monomer subunits; expressed in transfected cells; host or cells: CV-1 (green monkey kidney), whole-cell lysate
T2 sequence (P10276 1-462): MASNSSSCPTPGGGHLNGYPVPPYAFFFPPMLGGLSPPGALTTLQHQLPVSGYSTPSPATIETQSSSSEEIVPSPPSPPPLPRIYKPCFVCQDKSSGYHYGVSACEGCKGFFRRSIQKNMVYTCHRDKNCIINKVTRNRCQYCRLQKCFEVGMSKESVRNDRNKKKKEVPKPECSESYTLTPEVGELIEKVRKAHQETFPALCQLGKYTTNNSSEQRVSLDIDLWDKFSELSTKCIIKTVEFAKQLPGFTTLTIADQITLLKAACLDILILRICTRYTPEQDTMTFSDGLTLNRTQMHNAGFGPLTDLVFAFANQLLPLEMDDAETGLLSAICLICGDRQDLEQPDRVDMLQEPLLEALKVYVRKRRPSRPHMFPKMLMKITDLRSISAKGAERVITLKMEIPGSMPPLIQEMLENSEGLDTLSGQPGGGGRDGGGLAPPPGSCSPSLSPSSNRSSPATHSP
T2 sequence (P28705 1-463 partner): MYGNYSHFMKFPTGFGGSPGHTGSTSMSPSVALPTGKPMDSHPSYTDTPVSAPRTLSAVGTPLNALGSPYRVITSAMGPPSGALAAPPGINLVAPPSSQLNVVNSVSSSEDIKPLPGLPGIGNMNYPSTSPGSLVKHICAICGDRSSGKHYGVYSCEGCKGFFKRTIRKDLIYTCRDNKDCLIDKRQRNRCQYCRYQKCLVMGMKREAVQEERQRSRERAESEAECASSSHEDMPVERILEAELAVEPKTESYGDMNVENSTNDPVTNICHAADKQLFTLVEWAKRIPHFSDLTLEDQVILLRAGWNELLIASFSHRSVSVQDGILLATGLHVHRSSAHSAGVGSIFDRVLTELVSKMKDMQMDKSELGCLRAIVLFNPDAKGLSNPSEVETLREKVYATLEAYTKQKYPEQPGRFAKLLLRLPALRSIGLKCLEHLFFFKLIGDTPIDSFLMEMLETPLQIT
Excerpt: (§1) Nolte, R. T. et al., Nature 395:137-143 (1998). We addressed the importance of each of the three LXDs in mediating co-activator-receptor interaction using synthetic peptides comprising the LXD1, LXD2 or LXD3 amino acid sequences as competitors with SRC-1 in the DNA modified immunoprecipitation methods of the present invention. These peptides have the following amino acid sequences (with the characteristic LXXLL motif shown in bold):
(§2) Transfection, DR-5 oligonucleotide treatment, ligand treatment, immunoprecipitation and detection of associated co-factors were performed essentially as shown in the previous Examples. CV-1 cells were transfected with plasmids expressing either RARα/RXRγ-V5 or with RARγ/RXRα-V5. Synthetic LXD peptides were added to the cell lysate before the addition of retinoids at a concentration of 20 (ACTR) and 40 (SRC-1) […].

RARγ/RXRα heterodimer = biological target: T3, RARγ/RXRα heterodimer (Homo sapiens, UniProt P13631); assay: LXD peptide competition of ATRA-induced co-activator recruitment (Example 7, FIG. 8B); format: biochemical; settings: DR-5 RARE, compared with the RARα/RXRγ experiment
T3 sequence (P13631 1-454): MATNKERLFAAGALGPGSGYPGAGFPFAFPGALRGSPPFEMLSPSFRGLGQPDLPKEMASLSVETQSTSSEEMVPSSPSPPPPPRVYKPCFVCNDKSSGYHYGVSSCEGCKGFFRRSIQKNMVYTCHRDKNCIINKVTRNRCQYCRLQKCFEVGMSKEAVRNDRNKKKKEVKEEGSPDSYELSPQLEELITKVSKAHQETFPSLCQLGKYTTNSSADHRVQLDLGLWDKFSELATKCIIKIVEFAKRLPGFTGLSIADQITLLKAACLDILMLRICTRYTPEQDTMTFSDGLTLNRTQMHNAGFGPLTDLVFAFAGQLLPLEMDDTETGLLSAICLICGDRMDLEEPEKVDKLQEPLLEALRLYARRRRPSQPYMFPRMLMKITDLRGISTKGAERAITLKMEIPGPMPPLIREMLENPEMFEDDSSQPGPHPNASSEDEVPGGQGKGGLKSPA
T3 sequence (P19793 1-462 partner): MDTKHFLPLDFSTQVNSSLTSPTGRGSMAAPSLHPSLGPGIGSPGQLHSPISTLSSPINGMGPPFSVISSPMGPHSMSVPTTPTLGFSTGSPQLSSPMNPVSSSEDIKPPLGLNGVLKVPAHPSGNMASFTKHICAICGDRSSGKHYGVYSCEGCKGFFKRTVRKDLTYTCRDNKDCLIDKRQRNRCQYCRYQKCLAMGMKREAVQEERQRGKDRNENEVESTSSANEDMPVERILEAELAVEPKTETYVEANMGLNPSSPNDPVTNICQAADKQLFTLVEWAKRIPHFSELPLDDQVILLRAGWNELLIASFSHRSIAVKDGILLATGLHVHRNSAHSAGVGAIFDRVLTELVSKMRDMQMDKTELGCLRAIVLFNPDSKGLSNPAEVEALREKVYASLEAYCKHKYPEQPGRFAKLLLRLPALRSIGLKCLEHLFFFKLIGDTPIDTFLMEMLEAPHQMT
Excerpt: as §1, §2

RARγ-V5/RXRα heterodimer [7] = biological target: T1, RARγ-V5/RXRα heterodimer; assay: anti-V5 co-IP from CV-1 lysate, Western anti-N-CoR; DR-5 RARE, 1 uM ligand

Sequence of RARβ-V5/RXRα heterodimer (human) (P10826 other isoform, or with tags, fused parts or gaps): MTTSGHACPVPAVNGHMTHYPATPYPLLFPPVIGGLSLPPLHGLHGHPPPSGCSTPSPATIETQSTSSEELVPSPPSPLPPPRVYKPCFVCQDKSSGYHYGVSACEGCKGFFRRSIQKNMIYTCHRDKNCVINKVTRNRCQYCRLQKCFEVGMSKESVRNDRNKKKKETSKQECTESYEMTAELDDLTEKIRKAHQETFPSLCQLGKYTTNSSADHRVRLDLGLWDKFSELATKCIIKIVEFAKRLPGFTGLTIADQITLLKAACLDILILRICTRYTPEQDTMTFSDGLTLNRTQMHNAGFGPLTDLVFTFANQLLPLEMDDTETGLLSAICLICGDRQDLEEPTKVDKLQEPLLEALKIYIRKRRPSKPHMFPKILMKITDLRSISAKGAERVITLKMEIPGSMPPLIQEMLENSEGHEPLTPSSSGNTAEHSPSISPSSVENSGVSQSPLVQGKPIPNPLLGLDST

For CC1(C)CCC(c2ccc(F)cc2)c2cc(C#Cc3ccc(C(=O)O)cc3)ccc21 (centres unmarked) [AGN 193840], the N-CoR recruitment (RARγ-V5/RXRα heterodimer [1]; with DR-5 RARE 0.5 μg/ml) was “led to N-COR recruitment”.

For “nuclear receptor co-activator ACTR (other; other documents disagree on this pair)”, the % recruitment relative to TTNPB [2] was 65%.

“nuclear receptor co-activator SRC-1, endogenously expressed by CV-1 cells” showed an amount of SRC-1 detected compared to treatment with TTNPB [3] of 30%.

In the case of Cc1ccc(C2CCC(C)(C)c3ccc(C#Cc4ccc(C(=O)O)cc4)cc32)cc1 (centres unmarked) [AGN 193109], the “N-CoR recruitment compared to AGN 193840” value (RARγ-V5/RXRα heterodimer [1]; with DR-5 RARE) is reported as “approximately two-fold increase”, the N-CoR recruitment (RARγ-V5/RXRα heterodimer [1]; with DR-5 RARE 0.5 μg/ml) is reported as “led to N-COR recruitment” and the N-CoR recruitment (RARγ-V5/RXRα heterodimer [1]; with G-5-G DNA element instead of DR-5 RARE) is reported as “failed to result in the detection of co-repressor”.

Work on “nuclear receptor co-activator SRC-1, endogenously expressed by CV-1 cells (other; other documents disagree on this pair)” yielded a % recruitment compared to TTNPB [4] of 65% and a % recruitment relative to TTNPB [5] of 23 to 32%.

In the case of “LESKGHKKLLQLLTCSSDDRGH (Nuclear co-activator LXD-containing peptide) [ACTR LXD1]”, the “effect of peptide on ATRA-induced recruitment of ACTR” value [6] is reported as “abolished”.

In the case of “KYSQTSHKLVQLLTTTAEQQLR (Nuclear co-activator LXD-containing peptide) [SRC-1 LXD1]”, the “amount of SRC-1 associated in the presence of peptide” value (RARγ/RXRα heterodimer) is reported as “somewhat greater” and the “effect of peptide on ATRA-induced recruitment of SRC-1” value [6] is reported as “no effect”.

For “LLQEKHRTLHKLLQNGNSPAEV (LLQEKHRILHKLLQNGNSPAEV; Nuclear co-activator LXD-containing peptide) [ACTR LXD2]”, the “effect of peptide on ATRA-induced recruitment of ACTR” value [6] was “abolished”.

nuclear receptor co-repressor N-CoR gave a fold increase in N-CoR recruitment with AGN 193109 compared to AGN 193840 (RARγ-V5/RXRα heterodimer [7]) of 2 fold.

In the case of “KESKDHQLLRYLLDKDEKDLRS (Nuclear co-activator LXD-containing peptide) [SRC-1 LXD3]”, the “effect of peptide on ATRA-induced recruitment of SRC-1” value [6] is reported as “completely abolished”.
